Results on four molecules are retold here after article PMC11908248 (bioRxiv, 2025).

The Kd is the equilibrium constant for the complex coming apart. A high value points to lower affinity. As a reminder, the stoichiometry N is the number of molecules, sites or subunits per partner or assembly.

To fix the notation:
B2: UNC-116-sfGFP-StrepII (natural protein, C. elegans, UniProt P34540 1-815, looked up)
chain: MEPRTDGAECGVQVFCRIRPLNKTEEKNADRFLPKFPSEDSISLGGKVYVFDKVFKPNTTQEQVYKGAAYHIVQDVLSGYNGTVFAYGQTSSGKTHTMEGVIGDNGLSGIIPRIVADIFNHIYSMDENLQFHIKVSYYEIYNEKIRDLLDPEKVNLSIHEDKNRVPYVKGATERFVGGPDEVLQAIEDGKSNRMVAVTNMNEHSSRSHSVFLITVKQEHQTTKKQLTGKLYLVDLAGSEKVSKTGAQGTVLEEAKNINKSLTALGIVISALAEGTKSHVPYRDSKLTRILQESLGGNSRTTVIICASPSHFNEAETKSTLLFGARAKTIKNVVQINEELTAEEWKRRYEKEKEKNTRLAALLQAAALELSRWRAGESVSEVEWVNLSDSAQMAVSEVSGGSTPLMERSIAPAPPMLTSTTGPITDEEKKKYEEERVKLYQQLDEKDDEIQKVSQELEKLRQQVLLQEEALGTMRENEELIREENNRFQKEAEDKQQEGKEMMTALEEIAVNLDVRQAECEKLKRELEVVQEDNQSLEDRMNQATSLLNAHLDECGPKIRHFKEGIYNVIREFNIADIASQNDQLPDHDLLNHVRIGVSKLFSEYSAAKESSTAAEHDAEAKLAADVARVESGQDAGRMKQLLVKDQAAKEIKPLTDRVNMELTTLKNLKKEFMRVLVARCQANQDTEGEDSLSGPAQKQRIQFLENNLDKLTKVHKQLVRDNADLRVELPKMEARLRGREDRIKILETALRDSKQRSQAERKKYQQEVERIKEAVRQRNMRRMNAPQIVKPIRPGQVYTSPSAGMSQGAPNGSNA

Data set [1] addresses GST-KLC-2 (C. elegans) (UniProt P46822). The data set is described as follows: mass photometry.
In data set [2] the target is C. elegans kinesin-1 heterotetramer (UNC-116-sfGFP-StrepII + KLC-2-6xHis) (C. elegans) (UniProt P34540). Kind of data set: mass photometry.
Data set [3] has as its target UNC-116-sfGFP-StrepII (C. elegans) (UniProt P34540). The data set is described as follows: mass photometry.
The target in data set [4] is GST-KLC-2 (C. elegans) (UniProt P46822). The data set is described as follows: BLI. In general terms: In BLI a coated tip is dipped into the sample, and binding shifts an interference pattern.
The data set “mass photometry” deals with the molecule itself. The data set is described as follows: mass photometry.
For the data set “UNC-116-sfGFP-StrepII”, the target named is B2. The data set is described as follows: mass photometry.

A value given as a limit tells only on which side of the number the result lay.

Sequence of GST-KLC-2 (C. elegans) (P46822 whole entry): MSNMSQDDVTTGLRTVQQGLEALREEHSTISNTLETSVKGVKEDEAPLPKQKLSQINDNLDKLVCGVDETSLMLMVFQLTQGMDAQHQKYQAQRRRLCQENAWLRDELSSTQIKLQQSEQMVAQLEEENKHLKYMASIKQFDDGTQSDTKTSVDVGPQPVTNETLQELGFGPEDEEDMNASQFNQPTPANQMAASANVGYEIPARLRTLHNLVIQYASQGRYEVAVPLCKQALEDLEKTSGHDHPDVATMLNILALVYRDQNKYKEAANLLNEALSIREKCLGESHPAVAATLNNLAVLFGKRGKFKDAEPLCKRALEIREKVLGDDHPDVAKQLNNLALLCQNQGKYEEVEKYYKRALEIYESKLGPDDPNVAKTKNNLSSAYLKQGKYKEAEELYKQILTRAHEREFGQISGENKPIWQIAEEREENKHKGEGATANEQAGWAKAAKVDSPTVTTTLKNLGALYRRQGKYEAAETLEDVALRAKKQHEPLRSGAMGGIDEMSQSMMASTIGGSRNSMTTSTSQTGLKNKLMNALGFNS

For “UNC-83c-mScarlet-StrepII (domain or fragment)”, in the data set with GST-KLC-2 (C. elegans) [1], the percent of particles in the peak of the complex was determined as 97 % peak and the stoichiometry N (UNC-83c monomer per KLC-2 monomer) was determined as 1.
As for “UNC-83a-mScarlet-StrepII (from UniProt Q23064 1-1041) (domain or fragment)”, in data set [2], the percent of particles in the peak of the complex was determined as 97 % peak and the stoichiometry N (UNC-83a monomer per kinesin-1 tetramer) was found to be 1. Further, in data set [3], the percent of particles in the peak of the complex came out at 99 % peak and the stoichiometry N (UNC-83a monomer per UNC-116 dimer) is 1. This molecule displayed a Kd with GST-KLC-2 (C. elegans) [4] of more than 1000 nM.

B1: UNC-83a^N-term-mScarlet-StrepII (domain or fragment, C. elegans, UniProt Q23064 1-305, looked up)
chain: MDVMDSFSEVEMPNDISSEDHLLKVIESSAEEVDIFLENCSSLYNLILDSLHNLTSKTISCECLDEMTSTLEKSAKKILAERPEAENSVLLRLNTICCAMDQLRVQHNSRMMSGADSDTASSARSSTSSSTGEMRLWLHEVERRLEINEKRIRVEPNLQLLLSDQQALQLEIQHEGQLLVNRLNKQIKDDHDSDSSEEEKRKTCVDAIRKRWHTIYLNSLSLVCRIEELINHQQASEDSESDPDLVGPPIKRARIRTVGHLTASDTEESEADEEDRHSQTETVVTEDDNVLPFAENEYESIMDGR
Consider B1, for which the “stoichiometry N” value in “mass photometry” is 2; with UNC-116-sfGFP-StrepII, 1 UNC-83a^N-term monomer per UNC-116 dimer.
With B2, the “stoichiometry N” value in “mass photometry” worked out at 2.
